This data set in a line: protein stability index of a GFP-peptide fusion (GPS, HEK-293T) (PSI 1-6); higher = more stable. To be noted: c terminus: a fixed tail appended.

± gives the standard deviation.
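Note: 24-mer peptide tiles fused after GFP, lentivirally expressed, FACS-sorted into six equal bins by GFP/DsRed ratio, decoded by Illumina sequencing, PSI is the read-weighted mean bin number.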

On to EEEQDILQRLRENAAHLGDKRRDL [TRIM39], for which the protein stability index reads like this: (treatment: DMSO) 5.06 ± 0.26; (treatment: MLN4924 1 uM, 8 h) 4.97 ± 0.059.

Regarding EERAAPVLSCEAATQTERRLDLAA [FAM189A2], the protein stability index runs as follows: (treatment: DMSO) 5.05 ± 0.28; (treatment: MLN4924 1 uM, 8 h) 4.99 ± 0.12.

As for EERRVVHASGDASYSAGDSGDAAA [EPB41L3], the protein stability index is, setting by setting: (treatment: DMSO) 5.49 ± 0.32; (treatment: MLN4924 1 uM, 8 h) 5.42 ± 0.17.

Turning to EESEEERGLEPGKGRHHRGRGGEP [CHGB], the protein stability index by setting is: (treatment: DMSO) 5.59 ± 0.17; (treatment: MLN4924 1 uM, 8 h) 5.51 ± 0.25.

EESKEPKEEKQRRRCKPKKPTRRD [GNAS]: the protein stability index was determined as 5.42 ± 0.11 (treatment: DMSO) and 5.44 ± 0.16 (treatment: MLN4924 1 uM, 8 h).

Consider EFHQRRSEIIQITTGSKELDKLLQ [RAD51], for which the protein stability index runs as follows: (treatment: DMSO) 2.93 ± 0.2; (treatment: MLN4924 1 uM, 8 h) 3.03 ± 0.51.

Consider EGEEDATSEVDKRRTRPRHHHGRS [CHGB], for which the protein stability index by setting is: (treatment: DMSO) 5.35 ± 0.47; (treatment: MLN4924 1 uM, 8 h) 5.33 ± 0.28.

Consider EGGTAVTGGQTVVNPWIIIGGVAT [SEPHS2], for which the protein stability index reads like this: (treatment: DMSO) 2.68 ± 0.29; (treatment: MLN4924 1 uM, 8 h) 2.77 ± 0.43.

Take EGKMYTARKGKGAFCNGQKLQVSQ [IMPA1]: the protein stability index runs as follows: (treatment: DMSO) 3.52 ± 0.33; (treatment: MLN4924 1 uM, 8 h) 3.93 ± 0.32.

Turning to EGKNMSFVNDLTVTQDGRKIYFTD [APMAP], the protein stability index runs as follows: (treatment: DMSO) 3.98 ± 0.38; (treatment: MLN4924 1 uM, 8 h) 3.91 ± 0.58.

EGLELTEQTFSPAKSLSFRKGELV [ADD1] yielded a protein stability index (treatment: DMSO) of 4 ± 0.39 and a protein stability index (treatment: MLN4924 1 uM, 8 h) of 4.2 ± 0.34.

In the case of EGLGQSLGNFKDDLLNVCMRHVEK [TRIM29], the protein stability index reads like this: (treatment: DMSO) 3.62 ± 0.27; (treatment: MLN4924 1 uM, 8 h) 3.78 ± 0.27.

EGLLRFSSWPFSIQDVVQPLTLQV [AUP1] gave a protein stability index (treatment: DMSO) of 2.85 ± 0.76 and a protein stability index (treatment: MLN4924 1 uM, 8 h) of 2.98 ± 1.

As to EGYCQAQAPIAAVLLMHMPAEQAF [TBC1D10A], the protein stability index came to 2.33 ± 0.49 (treatment: DMSO) and 2.03 ± 0.27 (treatment: MLN4924 1 uM, 8 h).

On to EIALAPYQHLEEDMKSLKQVLEMK [MTUS2], for which the protein stability index stood at 3.62 ± 0.17 (treatment: DMSO) and 3.65 ± 0.49 (treatment: MLN4924 1 uM, 8 h).

With EIKDVLVWTNDQVVHWVQSIGLRD [PPFIA4], for the setting “treatment: MLN4924 1 uM, 8 h”, the protein stability index stood at 2.25 ± 0.37.

Regarding EKMMQEAEKLKAQGEYSRKLEERF [CCDC89], the protein stability index stood at 3.48 ± 0.24 (treatment: DMSO) and 3.56 ± 0.52 (treatment: MLN4924 1 uM, 8 h).

In the case of EKNQVQLGKLEATIKSLSAELLKA [SASS6], the protein stability index was determined as 2.6 ± 0.45 (treatment: DMSO) and 2.54 ± 0.42 (treatment: MLN4924 1 uM, 8 h).

EKSGSAEPFVLPASSVESTLPVLE [FBXO34]: the protein stability index is, setting by setting: (treatment: DMSO) 5.08 ± 0.39; (treatment: MLN4924 1 uM, 8 h) 5.01 ± 0.34.

For the sequence ELALALKGNTTLQQLDLRWNNVGL [LRRC45], the protein stability index amounted to 2.19 ± 0.42 (treatment: DMSO) and 2.07 ± 0.35 (treatment: MLN4924 1 uM, 8 h).

Regarding ELEKNFSNFPRQYFALRKILKQLI [TRIM39], the protein stability index (treatment: DMSO) amounted to 2.58 ± 0.92 and the protein stability index (treatment: MLN4924 1 uM, 8 h) turned out to be 2.85 ± 1.3.

Consider ELEQQIWKERDEYITKVSEEVTRL [TRIM15], for which the protein stability index was determined as 3.94 ± 0.21 (treatment: DMSO) and 3.95 ± 0.27 (treatment: MLN4924 1 uM, 8 h).

Regarding ELERFVNLHSLALDFCDFTAEMAR [FBXO33], the protein stability index by setting is: (treatment: DMSO) 2.23 ± 0.11; (treatment: MLN4924 1 uM, 8 h) 2.61 ± 0.29.

ELESIRQDRDALHMEGLIVRERIL [FEM1B]: the protein stability index turned out to be 3.44 ± 0.27 (treatment: DMSO) and 3.52 ± 0.36 (treatment: MLN4924 1 uM, 8 h).

The sequence ELRRLFLVQDLVDSLKFAVLMWLL [RTN1] showed a protein stability index (treatment: DMSO) of 2.18 ± 0.56 and a protein stability index (treatment: MLN4924 1 uM, 8 h) of 2.2 ± 0.29.

In turn, ELSPLALGRFSLTPAEGDTEEDDG [CDC25B] came in with a protein stability index (treatment: DMSO) of 5.44 ± 0.18 and a protein stability index (treatment: MLN4924 1 uM, 8 h) of 5.44 ± 0.43.

Regarding ELVENIKSVLKSDEEHMEEAITSA [FAM189A2], the protein stability index runs as follows: (treatment: DMSO) 3.64 ± 0.16; (treatment: MLN4924 1 uM, 8 h) 3.79 ± 0.41.

With ELVLVSAGFDAARGDPLGGCQVSP [HDAC6], the protein stability index stood at 2.89 ± 0.27 (treatment: DMSO) and 3.14 ± 0.35 (treatment: MLN4924 1 uM, 8 h).

On to EMHFLENAKKLSMYGVDLHHAKDS [EPB41L3], for which the protein stability index is, setting by setting: (treatment: DMSO) 3.03 ± 0.67; (treatment: MLN4924 1 uM, 8 h) 2.8 ± 0.25.

For the origin of these results see the supplement of paper PMC10567573.
